Assay results: PMC7845616, “Convergent Evolution of a Promiscuous 3-Hydroxypropionyl-CoA Dehydratase/Crotonyl-CoA Hydratase in Crenarchaeota and Thaumarchaeota” (mSphere, 2021)

Experiments:
[1] = substrate: C=CC(=O)SCCNC(=O)CCNC(=O)[C@H](O)C(C)(C)COP(=O)(O)OP(=O)(O)OC[C@H]1O[C@@H](n2cnc3c(N)ncnc32)[C@H](O)[C@@H]1OP(=O)(O)O; assay: UHPLC of 3-hydroxypropionyl-CoA formed; format: biochemical, Metallosphaera sedula; conditions: 100 mM Tris-HCl pH 7.8, 65°C
Text: UHPLC of 3-hydroxypropionyl-CoA formed on Msed_2001

[2] = substrate: C/C=C/C(=O)SCCNC(=O)CCNC(=O)[C@H](O)C(C)(C)COP(=O)(O)OP(=O)(O)OC[C@H]1O[C@@H](n2cnc3c(N)ncnc32)[C@H](O)[C@@H]1OP(=O)(O)O; assay: UHPLC of 3-hydroxybutyryl-CoA formed; format: biochemical, Metallosphaera sedula; conditions: 100 mM Tris-HCl pH 7.8, 65°C
Text: UHPLC of 3-hydroxybutyryl-CoA formed on Msed_2001

[3] = substrate: CCCCC/C=C/C(=O)SCCNC(=O)CCNC(=O)[C@H](O)C(C)(C)COP(=O)(O)OP(=O)(O)OC[C@H]1O[C@@H](n2cnc3c(N)ncnc32)[C@H](O)[C@@H]1OP(=O)(O)O; assay: UHPLC of 3-hydroxyoctanoyl-CoA formed; format: biochemical, Metallosphaera sedula; conditions: 100 mM Tris-HCl pH 7.8, 65°C
Text: UHPLC of 3-hydroxyoctanoyl-CoA formed on Msed_2001

[4] = substrate: C[C@H](O)CC(=O)SCCNC(=O)CCNC(=O)[C@H](O)C(C)(C)COP(=O)(O)OP(=O)(O)OC[C@H]1O[C@@H](n2cnc3c(N)ncnc32)[C@H](O)[C@@H]1OP(=O)(O)O; assay: dehydration coupled to Ccr, UHPLC; format: biochemical, Metallosphaera sedula; conditions: 100 mM Tris-HCl pH 7.8, 42°C, 1 mM NADPH, 50 mM NaHCO3, Ccr
Text: (§1) dehydration coupled to Ccr, UHPLC on Msed_2001

[5] = substrate: CC(C)(COP(=O)(O)OP(=O)(O)OC[C@H]1O[C@@H](n2cnc3c(N)ncnc32)[C@H](O)[C@@H]1OP(=O)(O)O)[C@@H](O)C(=O)NCCC(=O)NCCSC(=O)CCO; assay: dehydration coupled to Ccr, UHPLC; format: biochemical, Metallosphaera sedula; conditions: 100 mM Tris-HCl pH 7.8, 42°C, 1 mM NADPH, 50 mM NaHCO3, Ccr
Text: as §1

[6] = substrate: C/C=C/C(=O)SCCNC(=O)CCNC(=O)[C@H](O)C(C)(C)COP(=O)(O)OP(=O)(O)OC[C@H]1O[C@@H](n2cnc3c(N)ncnc32)[C@H](O)[C@@H]1OP(=O)(O)O; assay: UHPLC of 3-hydroxybutyryl-CoA formed; format: biochemical, Nitrosopumilus maritimus; conditions: 100 mM Tris-HCl pH 7.8, 30°C
Text: UHPLC of 3-hydroxybutyryl-CoA formed on Nmar_1308

[7] = substrate: C=CC(=O)SCCNC(=O)CCNC(=O)[C@H](O)C(C)(C)COP(=O)(O)OP(=O)(O)OC[C@H]1O[C@@H](n2cnc3c(N)ncnc32)[C@H](O)[C@@H]1OP(=O)(O)O; assay: UHPLC of 3-hydroxypropionyl-CoA formed; format: biochemical, Nitrosopumilus maritimus; conditions: 100 mM Tris-HCl pH 7.8, 30°C
Text: UHPLC of 3-hydroxypropionyl-CoA formed on Nmar_1308

[8] = substrate: C[C@H](O)CC(=O)SCCNC(=O)CCNC(=O)[C@H](O)C(C)(C)COP(=O)(O)OP(=O)(O)OC[C@H]1O[C@@H](n2cnc3c(N)ncnc32)[C@H](O)[C@@H]1OP(=O)(O)O; assay: dehydration coupled to Ccr, UHPLC; format: biochemical, Nitrosopumilus maritimus; conditions: 100 mM Tris-HCl pH 7.8, 30°C, 1 mM NADPH, 50 mM NaHCO3, Ccr
Text: (§2) dehydration coupled to Ccr, UHPLC on Nmar_1308

[9] = substrate: CC(C)(COP(=O)(O)OP(=O)(O)OC[C@H]1O[C@@H](n2cnc3c(N)ncnc32)[C@H](O)[C@@H]1OP(=O)(O)O)[C@@H](O)C(=O)NCCC(=O)NCCSC(=O)CCO; assay: dehydration coupled to Ccr, UHPLC; format: biochemical, Nitrosopumilus maritimus; conditions: 100 mM Tris-HCl pH 7.8, 30°C, 1 mM NADPH, 50 mM NaHCO3, Ccr
Text: as §2

[10] = substrate: CCCCC/C=C/C(=O)SCCNC(=O)CCNC(=O)[C@H](O)C(C)(C)COP(=O)(O)OP(=O)(O)OC[C@H]1O[C@@H](n2cnc3c(N)ncnc32)[C@H](O)[C@@H]1OP(=O)(O)O; assay: UHPLC of 3-hydroxyoctanoyl-CoA formed; format: biochemical, Nitrosopumilus maritimus; conditions: 100 mM Tris-HCl pH 7.8, 30°C
Text: UHPLC of 3-hydroxyoctanoyl-CoA formed on Nmar_1308

[11] = substrate: CCCCC/C=C/C(=O)SCCNC(=O)CCNC(=O)[C@H](O)C(C)(C)COP(=O)(O)OP(=O)(O)OC[C@H]1O[C@@H](n2cnc3c(N)ncnc32)[C@H](O)[C@@H]1OP(=O)(O)O; assay: UHPLC of 3-hydroxyoctanoyl-CoA formed; format: biochemical, Metallosphaera sedula; conditions: 100 mM Tris-HCl pH 7.8, 65°C; remark: listed apart in the source
Text: UHPLC of 3-hydroxyoctanoyl-CoA formed on Msed_0566

[12] = substrate: C=C(C)C(=O)SCCNC(=O)CCNC(=O)[C@H](O)C(C)(C)COP(=O)(O)OP(=O)(O)OC[C@H]1O[C@@H](n2cnc3c(N)ncnc32)[C@H](O)[C@@H]1OP(=O)(O)O; assay: UHPLC of 3-hydroxy-2-methylpropionyl-CoA formed; format: biochemical, Metallosphaera sedula; conditions: 100 mM Tris-HCl pH 7.8, 65°C
Text: UHPLC of 3-hydroxy-2-methylpropionyl-CoA formed on Msed_0566

[13] = substrate: C=CC(=O)SCCNC(=O)CCNC(=O)[C@H](O)C(C)(C)COP(=O)(O)OP(=O)(O)OC[C@H]1O[C@@H](n2cnc3c(N)ncnc32)[C@H](O)[C@@H]1OP(=O)(O)O; assay: UHPLC of 3-hydroxypropionyl-CoA formed; format: biochemical, Metallosphaera sedula; conditions: 100 mM Tris-HCl pH 7.8, 65°C; remark: listed apart in the source
Text: UHPLC of 3-hydroxypropionyl-CoA formed on Msed_0566

[14] = substrate: C/C=C/C(=O)SCCNC(=O)CCNC(=O)[C@H](O)C(C)(C)COP(=O)(O)OP(=O)(O)OC[C@H]1O[C@@H](n2cnc3c(N)ncnc32)[C@H](O)[C@@H]1OP(=O)(O)O; assay: UHPLC of 3-hydroxybutyryl-CoA formed; format: biochemical, Metallosphaera sedula; conditions: 100 mM Tris-HCl pH 7.8, 65°C; remark: listed apart in the source
Text: UHPLC of 3-hydroxybutyryl-CoA formed on Msed_0566

[15] = substrate: C=C(C)C(=O)SCCNC(=O)CCNC(=O)[C@H](O)C(C)(C)COP(=O)(O)OP(=O)(O)OC[C@H]1O[C@@H](n2cnc3c(N)ncnc32)[C@H](O)[C@@H]1OP(=O)(O)O; assay: UHPLC of 3-hydroxy-2-methylpropionyl-CoA formed; format: biochemical, Syntrophothermus lipocalidus; conditions: 100 mM Tris-HCl pH 7.8, 42°C
Text: UHPLC of 3-hydroxy-2-methylpropionyl-CoA formed on Slip_2089

[16] = substrate: C=CC(=O)SCCNC(=O)CCNC(=O)[C@H](O)C(C)(C)COP(=O)(O)OP(=O)(O)OC[C@H]1O[C@@H](n2cnc3c(N)ncnc32)[C@H](O)[C@@H]1OP(=O)(O)O; assay: UHPLC of 3-hydroxypropionyl-CoA formed; format: biochemical, Syntrophothermus lipocalidus; conditions: 100 mM Tris-HCl pH 7.8, 42°C
Text: UHPLC of 3-hydroxypropionyl-CoA formed on Slip_2089

[17] = substrate: C[C@H](O)CC(=O)SCCNC(=O)CCNC(=O)[C@H](O)C(C)(C)COP(=O)(O)OP(=O)(O)OC[C@H]1O[C@@H](n2cnc3c(N)ncnc32)[C@H](O)[C@@H]1OP(=O)(O)O; assay: dehydration coupled to Ccr, UHPLC; format: biochemical, Syntrophothermus lipocalidus; conditions: 100 mM Tris-HCl pH 7.8, 42°C, 1 mM NADPH, 50 mM NaHCO3, Ccr
Text: (§3) dehydration coupled to Ccr, UHPLC on Slip_2089

[18] = substrate: CC(C)(COP(=O)(O)OP(=O)(O)OC[C@H]1O[C@@H](n2cnc3c(N)ncnc32)[C@H](O)[C@@H]1OP(=O)(O)O)[C@@H](O)C(=O)NCCC(=O)NCCSC(=O)CCO; assay: dehydration coupled to Ccr, UHPLC; format: biochemical, Syntrophothermus lipocalidus; conditions: 100 mM Tris-HCl pH 7.8, 42°C, 1 mM NADPH, 50 mM NaHCO3, Ccr
Text: as §3

[19] = substrate: CCCCC/C=C/C(=O)SCCNC(=O)CCNC(=O)[C@H](O)C(C)(C)COP(=O)(O)OP(=O)(O)OC[C@H]1O[C@@H](n2cnc3c(N)ncnc32)[C@H](O)[C@@H]1OP(=O)(O)O; assay: UHPLC of 3-hydroxyoctanoyl-CoA formed; format: biochemical, Syntrophothermus lipocalidus; conditions: 100 mM Tris-HCl pH 7.8, 42°C
Text: UHPLC of 3-hydroxyoctanoyl-CoA formed on Slip_2089

[20] = substrate: C/C=C/C(=O)SCCNC(=O)CCNC(=O)[C@H](O)C(C)(C)COP(=O)(O)OP(=O)(O)OC[C@H]1O[C@@H](n2cnc3c(N)ncnc32)[C@H](O)[C@@H]1OP(=O)(O)O; assay: UHPLC of 3-hydroxybutyryl-CoA formed; format: biochemical, Syntrophothermus lipocalidus; conditions: 100 mM Tris-HCl pH 7.8, 42°C
Text: UHPLC of 3-hydroxybutyryl-CoA formed on Slip_2089

B1: Msed_2001 (Metallosphaera sedula DSM 5348) (protein)
chain: MEFETIETKKEGNLFWITLNRPDKLNALNAKLLEELDRAVSQAESDPEIRVIIITGKGKAFCAGADITQFNQLTPAEAWKFSKKGREIMDKIEALSKPTIAMINGYALGGGLELALACDIRIAAEEAQLGLPEINLGIYPGYGGTQRLTRVIGKGRALEMMMTGDRIPGKDAEKYGLVNRVVPLANLEQETRKLAEKIAKKSPISLALIKEVVNRGLDSPLLSGLALESVGWGVVFSTEDKKEGVSAFLEKREPTFKGK
notes: pET16b, N-terminal His10-tag, expressed in E. coli Rosetta 2 (DE3), heat precipitation and Ni-NTA purified
Km [1]: 140 ± 10 µM
kcat/Km [1]: 9.94e+07 M⁻¹ s⁻¹
Km [2]: 80 ± 10 µM
kcat/Km [2]: 3.16e+07 M⁻¹ s⁻¹
Km [3]: 48 ± 5 µM
kcat/Km [3]: 3.94e+07 M⁻¹ s⁻¹
Km [4]: 34 ± 4 µM
kcat/Km [4]: 4.38e+07 M⁻¹ s⁻¹
Km [5]: 160 ± 20 µM
kcat/Km [5]: 3.26e+06 M⁻¹ s⁻¹

B2: Nmar_1308 (Nitrosopumilus maritimus SCM1) (protein)
chain: MSLVTTSTSDGICTVKINRPDKLNAMNTDVAKELIKTFEELNHNDDVKVIILTGEGEKAFSAGADIEYMSKISADESVEYAKTGQLVTATVELVKQPTIAAVNGFALGGGCELAMSCDIRIAADTAKLGQPEVTIGVPPGWGGTQRLMRIVGIAKAKELVYTGKMIKAEEAKEIGLVNHVVPLASLQEEALKMAQQIAGNSTMGVQMSKVAINKGRNADLDTGLGLEILAWRNCFTHPDRQERMTAFVNKSKK
notes: pET16b, His10-tagged, expressed in E. coli Rosetta 2 (DE3), Ni-NTA purified
Km [6]: 450 ± 30 µM
Vmax [6]: 3790 ± 111 µmol/min/mg
kcat/Km [6]: 4.25e+06 M⁻¹ s⁻¹
Km [7]: 710 ± 70 µM
Vmax [7]: 11400 ± 392 µmol/min/mg
kcat/Km [7]: 8.09e+06 M⁻¹ s⁻¹
Km [8]: 360 ± 60 µM
Vmax [8]: 1520 ± 92 µmol/min/mg
kcat/Km [8]: 2.12e+06 M⁻¹ s⁻¹
Km [9]: 170 ± 30 µM
Vmax [9]: 38 µmol/min/mg
kcat/Km [9]: 113000 M⁻¹ s⁻¹
Km [10]: 120 ± 20 µM
Vmax [10]: 47 µmol/min/mg
kcat/Km [10]: 198000 M⁻¹ s⁻¹

B3: Msed_0566 (Metallosphaera sedula DSM 5348) (protein)
chain: MDVILEKRKGYLLLTFNTGGRYNVFTTRFMIEMIDTLSEVEKIRDPHYLVIKGENGNFGAGADVKELLKANGDKEYAKVYFGHMKDLFVKMLSLNKVTIGLIEGVAYGASMELLLALDIVIAKRGTKFAAPGGKLGVFPPVLVSIGPYLLGHRTSRKLAMLGEELDTQGAINAGLIDYEVDDLEKGLLELLNRLKVMSPSAQVRMRKLILQSLIPHLEKAFDELATQVTSDEAREGISSFFSKTSPSWSSVGFS
notes: as for B2
Km [11]: 180 ± 60 µM
kcat/Km [11]: 16000 M⁻¹ s⁻¹
Km [12]: 140 ± 30 µM
kcat/Km [12]: 2000 M⁻¹ s⁻¹
Km [13]: 37 ± 2 µM
kcat/Km [13]: 39000 M⁻¹ s⁻¹
Km [14]: 80 ± 30 µM
kcat/Km [14]: 19000 M⁻¹ s⁻¹

B4: Slip_2089 (Syntrophothermus lipocalidus DSM 12680) (protein)
chain: MEDKQKSVKCSIDDQGIAIVTINRPHALNALNREVFTELGKVFDELRDNPRARVVVLTGEGQKAFAAGSDITEMKECSVLEAREFAMLANRTQGKIETFPKPVIAAVNGFALGGGCEVAMACDIRIASSNAKFGQPEINLGIIPGGGGTQRLARLVGLGRAKELVYSGGIIDAQRAYEIGLVNKVVPAEALMSEALGLAAKIASKSMPVLMLAKVAFNHGFSMDLDKALQFEIECFAECFGTDDHTEGMSAFIERREPAFKDK
notes: as for B2
Km [15]: 1010 ± 220 µM
kcat/Km [15]: 500 M⁻¹ s⁻¹
Km [16]: 400 ± 50 µM
kcat/Km [16]: 138000 M⁻¹ s⁻¹
Km [17]: 1310 ± 310 µM
kcat/Km [17]: 41000 M⁻¹ s⁻¹
Km [18]: 350 ± 60 µM
kcat/Km [18]: 2000 M⁻¹ s⁻¹
Km [19]: 210 ± 40 µM
kcat/Km [19]: 562000 M⁻¹ s⁻¹
Km [20]: 160 ± 20 µM
kcat/Km [20]: 143000 M⁻¹ s⁻¹
